The results in this text go back to article PMC5910026 (Biochemistry, 2018).

The term stoichiometry N denotes the number of molecules, sites or subunits per partner or assembly.

This series deals with the molecule itself. The series can be described thus: AUC.

B1: MxiN (recombinant, from pET15b) (natural protein)
chain: MKVCNMQKGTLPVSRHHAYDGVVIKRIEKELCKTIKDRDTESKKKAICVIKDATKKAESLRIDAVCDGYQIGIQTAFEHIIDYICEWKLKQNENRRNIEDYITSLLSENLHDERIISTLLEQWLSSLRNTVTELKVVLPKCNLALRKKLELDLHKYRSDVKIILKYSEGNNYIFCSGNQVVEFSPQDVISGVKIELAEKLTKNDKKYFKELAHKKLRQIAEDLLKENPVND
Regarding B1, the “stoichiometry N” value was determined as 2.
